Results from patent publication US20240390468A1, “SURVIVIN AND MAGE-A9 DUAL-TARGETED IMMUNOTHERAPY” (IMMUNOVACCINE TECHNOLOGIES INC., priority 2022, published 2024).

Tested on: splenocytes of A2/DR1 mice
Assay: IFN-γ ELISA after stimulation of spleen cells with peptides
Format: cell-based
Procedure: FIG. 25 depicts cytokine response upon stimulation with reactive HLA-A2 MAGE-A9 peptides. Groups of three A2/DR1 mice were either not immunized (naive mice) or immunized twice with a pool of four reactive peptides in CTL assays (M9-A2-24; M9-A2-111; M9-A2-223; M9-A2-270) or with adjuvants only, as control. Mice were sacrificed after 28 days and spleens were collected for isolation of splenocytes. Splenocytes were restimulated for 72 h with either individual peptides or the peptide pool. Supernatant was collected and assayed by ELISA for secretion of murine INF-7. Bars represent mean of triplicate plus or minus standard deviation (SD). Tukey's multiple comparisons test was used to determine adjusted p values. *=p<0.05, **=p<0.01, ***=p<0.001, ****=p<0.0001.
INF-γ secreted after stimulation of spleen cells with the four peptides were tested by ELISA.
Supernatants from cultures of whole splenocytes stimulated with the irradiated splenocytes loaded with the peptides were collected after 72 hours of stimulation and the amounts of IFN-γ were estimated by sandwich ELISA using the mouse IFN-γ ELISA Max set Deluxe kit (BioLegend, San Diego, CA).

B1: recombinant MAGE-A9: his-tag MAGE-A9 full-length recombinant protein used as immunogen admixed with poly(I:C) (protein, UniProt P43362 1-315, looked up)
chain: MSLEQRSPHCKPDEDLEAQGEDLGLMGAQEPTGEEEETTSSSDSKEEEVSAAGSSSPPQSPQGGASSSISVYYTLWSQFDEGSSSQEEEEPSSSVDPAQLEFMFQEALKLKVAELVHFLLHKYRVKEPVTKAEMLESVIKNYKRYFPVIFGKASEFMQVIFGTDVKEVDPAGHSYILVTALGLSCDSMLGDGHSMPKAALLIIVLGVILTKDNCAPEEVIWEALSVMGVYVGKEHMFYGEPRKLLTQDWVQENYLEYRQVPGSDPAHYEFLWGSKAHAETSYEKVINYLVMLNAREPICYPSLYEEVLGEEQEGV
modifications: full-length His tag
  subtype of T cells induced after immunization: Th1 subtype
